Results as given in patent US20260061032A1 (GI INNOVATION, published 2026).

Key:
[1] = target: T1, hIL-2Rβ (human, UniProt P14784 27-239); assay: SPR, Biacore T200; biotinylated CD73 on SA chip, binder bound to CD73, hIL-2Rβ as analyte
T1 construct: also called hIL-2RB
T1 sequence (looked up): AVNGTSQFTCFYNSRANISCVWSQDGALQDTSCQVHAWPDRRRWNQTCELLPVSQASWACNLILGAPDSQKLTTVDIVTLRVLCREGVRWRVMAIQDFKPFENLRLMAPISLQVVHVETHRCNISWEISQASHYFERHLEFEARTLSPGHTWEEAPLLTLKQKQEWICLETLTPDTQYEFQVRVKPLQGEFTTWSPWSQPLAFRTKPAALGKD
Protocol: (§1) To quantitatively analyze the binding affinities to CD73 and IL-2 receptors of […] and GI-108B1, in which the anti-CD73 antibody that specifically binds to CD73 was linked to the IL-2 variant, and Aldesleukin (trade name: PROLEUKIN®, Novartis), the binding affinities were measured using SPR (surface plasmon resonance). Using a BIACORE™ T200 instrument (Cytiva), the binding affinities of GI-108A1 (AHF10240), GI-108A1 (AHP04167) and GI-108B1 to hCD73, cyCD73, mCD73, hIL-2Rα, hIL-2Rβ, and hIL-2Rβγ were analyzed. Oleclumab (Astrazeneca), produced on order from Ybiologics, Inc., was used as a control.
(§2) To analyze the binding affinity to hIL-2Ra, hIL-2Ra was […] immobilized on Sensor Chip CM5 using a His capture kit (Cytiva, USA). Each of GI-108A1 (AHF10240), GI-108A1 (AHP04167), GI-108B1 and PROLEUKIN®, diluted in HBS-EP+ buffer, was then applied for 1 minute, followed by analysis of association and dissociation. In addition, the binding affinities to hIL-2RB and hIL-2Rβγ were measured by a three-step analysis method including treating Sensor Chip SA (Cytiva, USA) with biotinylated CD73, and then binding each of GI-108A1 (AHF10240), GI-108A1 (AHP04167), GI-108B1 and PROLEUKIN® to CD73, followed by treatment with each of hIL-2RB and hIL-2Rβγ diluted in HBS-P+ buffer (Cytiva, USA). For hIL-2RB, association was performed for 1 minute and dissociation for 1 minute, and for hIL-2Rβγ, association was performed for 5 minutes and dissociation for 2 hours at each concentration, in a single cycle kinetics analysis. Each sensorgram was normalized and subtracted compared to a blank cell to calculate affinity.

[2] = target: T2, hIL-2Rβγ (human, UniProt P14784 27-239; P31785 23-254); assay: SPR, Biacore T200; biotinylated CD73 on SA chip, binder bound to CD73, hIL-2Rβγ as analyte, single cycle kinetics
T2 construct: Soluble beta/gamma heterodimer used as SPR analyte
T2 sequence (looked up) 1: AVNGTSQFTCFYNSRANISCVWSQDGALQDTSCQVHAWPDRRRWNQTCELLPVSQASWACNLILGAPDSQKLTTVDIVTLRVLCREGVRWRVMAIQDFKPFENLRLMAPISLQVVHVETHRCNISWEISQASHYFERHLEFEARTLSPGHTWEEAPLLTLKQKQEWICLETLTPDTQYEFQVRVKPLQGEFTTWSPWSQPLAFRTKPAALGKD
T2 sequence (looked up) 2: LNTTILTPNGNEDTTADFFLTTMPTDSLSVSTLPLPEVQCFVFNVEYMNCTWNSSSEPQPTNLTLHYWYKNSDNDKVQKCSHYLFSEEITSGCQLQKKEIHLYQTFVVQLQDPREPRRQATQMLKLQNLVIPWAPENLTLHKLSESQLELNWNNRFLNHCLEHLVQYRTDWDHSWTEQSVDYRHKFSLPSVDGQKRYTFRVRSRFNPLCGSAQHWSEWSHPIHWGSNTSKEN
Protocol: as §1, §2

[3] = target: T3, cyCD73; assay: SPR, Biacore T200; binder captured on CM5 chip by human antibody capture kit, CD73 as analyte
T3 construct: Species told only by the prefix 'cy'
Protocol: as §1
(§3) Specifically, to analyze the binding affinities to hCD73, cyCD73, and mCD73, each of GI-108A1 (AHF10240), GI-108A1 (AHP04167), GI-108B1, and Oleclumab was diluted in HBS-EP+ buffer (Cytiva, USA) and reversibly immobilized on Sensor Chip CM5 (Cytiva, USA) using a human antibody capture kit (Cytiva, USA). CD73 was diluted in HBS-EP+ buffer and then analyzed for association and dissociation at a flow rate of 30 μL/min for 5 minutes each.

[4] = target: T4, mCD73 (UniProt Q61503 29-551, limits assumed); assay: as above
T4 construct: Species told only by the prefix 'm'
T4 sequence (looked up): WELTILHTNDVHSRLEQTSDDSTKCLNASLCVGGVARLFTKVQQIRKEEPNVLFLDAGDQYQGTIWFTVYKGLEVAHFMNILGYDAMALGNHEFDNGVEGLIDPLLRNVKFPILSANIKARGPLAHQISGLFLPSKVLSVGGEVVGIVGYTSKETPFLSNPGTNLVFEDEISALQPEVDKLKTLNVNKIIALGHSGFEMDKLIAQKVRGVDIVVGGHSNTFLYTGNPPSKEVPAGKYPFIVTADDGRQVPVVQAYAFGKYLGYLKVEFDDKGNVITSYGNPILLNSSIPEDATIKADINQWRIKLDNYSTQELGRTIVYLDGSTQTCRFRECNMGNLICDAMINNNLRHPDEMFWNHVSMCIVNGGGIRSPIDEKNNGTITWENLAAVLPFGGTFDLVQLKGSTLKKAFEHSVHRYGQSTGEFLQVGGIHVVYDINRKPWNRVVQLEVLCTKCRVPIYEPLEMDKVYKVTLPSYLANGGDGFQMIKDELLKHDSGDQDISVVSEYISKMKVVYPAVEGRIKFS
Protocol: as §1, §3

[5] = target: T5, hCD73 (human, UniProt P21589 27-549, limits assumed); assay: as above
T5 construct: also called human CD73; recombinant human CD73 protein
T5 sequence: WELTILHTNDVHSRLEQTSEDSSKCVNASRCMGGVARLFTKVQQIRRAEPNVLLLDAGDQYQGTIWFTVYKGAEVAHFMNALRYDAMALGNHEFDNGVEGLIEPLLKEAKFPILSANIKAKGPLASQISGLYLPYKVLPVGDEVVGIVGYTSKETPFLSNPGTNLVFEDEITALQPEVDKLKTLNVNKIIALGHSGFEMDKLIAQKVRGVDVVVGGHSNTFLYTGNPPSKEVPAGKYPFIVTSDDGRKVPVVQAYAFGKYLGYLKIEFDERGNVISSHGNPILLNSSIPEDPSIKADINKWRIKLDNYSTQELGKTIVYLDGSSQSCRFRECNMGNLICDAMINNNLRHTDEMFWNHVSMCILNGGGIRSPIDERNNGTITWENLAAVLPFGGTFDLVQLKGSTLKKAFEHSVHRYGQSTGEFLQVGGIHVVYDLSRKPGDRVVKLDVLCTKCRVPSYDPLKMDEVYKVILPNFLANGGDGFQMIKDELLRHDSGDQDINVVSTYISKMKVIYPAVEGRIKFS
Protocol: as §1, §3

Binder | Kd [1] | Kd [2] | Kd [3] | Kd [4] | Kd [5] | binding result [4]
GI-108A1 (AHF10240) (Anti-CD73 sdAb-hIgG4 Fc-hIL2v3 fusion protein dimer) (Fc fusion, Homodimer through hinge cysteines) EVQLVESGGGVVQTGGSLRLSCAASGRTFTHLAMGWFRQAPGKEREFVAAISNSGAGTQFADSVKGRFTISRDNAKNTVYLQMNSLKPEDTAVYYCAADWGTRDSPSKLNAVYDYWGRGTQVTVSSGGGGSAESKYGPPCPPCPAPEAAGGPSVFLFPPKPKDQLMISRTPEVTCVVVDVSQEDPEVQFNWYVDGVEVHNAKTKPREEQFNSTYRVVSVLTVLHQDWLNGKEYKCKVSNKGLPSSIEKTISKAKGQPREPQVYTLPPSQEEMTKNQVSLTCLVKGFYPSDIAVEWESNGQPENNYKTTPPVLDSDGSFFLYSRLTVDKSRWQEGNVFSCSVLHEALHNHYTQKSLSLSLGGGGGSGGGGSGGGGSAPTSSSTKKTQLQLEHLLLDLQMILNGINNYKNPKLTAMLTAKFYMPKKATELKHLQCLERELKPLEEVLNLAQSKNFHLRPRDLISNINVIVLELKGSETTFMCEYADETATIVEFLNRWITFCQSIISTLT | 2500 nM | 0.417 nM | 0.0841 nM | 2.62 nM | 0.0502 nM | 
GI-108A1 (AHP04167) (Anti-CD73 sdAb-hIgG4 Fc-hIL2v3 fusion protein dimer) (Fc fusion, Homodimer through hinge cysteines) EVQLVESGGGLVQAGGSLRLSCVVSGRTFSNYHMGWFRQAPGKEREFVAVIGRSGGPTYYADSVKGRFTISRDNAKNTVYLQMNSLKPEDTAVYYCAGDWRNSDSPSKLKPVYDYWGQGTQVTVSSGGGGSAESKYGPPCPPCPAPEAAGGPSVFLFPPKPKDQLMISRTPEVTCVVVDVSQEDPEVQFNWYVDGVEVHNAKTKPREEQFNSTYRVVSVLTVLHQDWLNGKEYKCKVSNKGLPSSIEKTISKAKGQPREPQVYTLPPSQEEMTKNQVSLTCLVKGFYPSDIAVEWESNGQPENNYKTTPPVLDSDGSFFLYSRLTVDKSRWQEGNVFSCSVLHEALHNHYTQKSLSLSLGGGGGSGGGGSGGGGSAPTSSSTKKTQLQLEHLLLDLQMILNGINNYKNPKLTAMLTAKFYMPKKATELKHLQCLERELKPLEEVLNLAQSKNFHLRPRDLISNINVIVLELKGSETTFMCEYADETATIVEFLNRWITFCQSIISTLT | 2070 nM | 0.327 nM | 0.0708 nM | 3.45 nM | 0.088 nM | 
GI-108B1 (Anti-CD73 Ab-hIgG4 Fc-hIL2v3 fusion protein dimer) (antibody, IgG4 anti-CD73 antibody with the IL-2 variant fused to the C-terminus of each heavy chain; expressed in CHO cells, purified as a dimer) heavy: QVQLVQSGAEVKKPGSSVKVSCKFSGGSFTSYSFSWVRQAPGQGLEWMGRIIPVLTTTDYAQKFRDRVTITADESTSTAYMELSGLRSEDTAVYYCASGLKKNWYFDLWGRGALITVSSASTKGPSVFPLAPCSRSTSESTAALGCLVKDYFPEPVTVSWNSGALTSGVHTFPAVLQSSGLYSLSSVVTVPSSSLGTKTYTCNVDHKPSNTKVDKRVESKYGPPCPPCPAPEAAGGPSVFLFPPKPKDQLMISRTPEVTCVVVDVSQEDPEVQFNWYVDGVEVHNAKTKPREEQFNSTYRVVSVLTVLHQDWLNGKEYKCKVSNKGLPSSIEKTISKAKGQPREPQVYTLPPSQEEMTKNQVSLTCLVKGFYPSDIAVEWESNGQPENNYKTTPPVLDSDGSFFLYSRLTVDKSRWQEGNVFSCSVLHEALHNHYTQKSLSLSLGGGGGSGGGGSAPTSSSTKKTQLQLEHLLLDLQMILNGINNYKNPKLTAMLTAKFYMPKKATELKHLQCLERELKPLEEVLNLAQSKNFHLRPRDLISNINVIVLELKGSETTFMCEYADETATIVEFLNRWITFCQSIISTLT light: not shown | 2290 nM | 0.2 nM | 0.113 nM |  | 0.0894 nM | no binding
